{"source": "paper PMC3478719", "molecular_target": "SIF binding receptor from human spermatozoa (human (endogenous in spermatozoa))", "assay": "ITC; microreaction calorimeter, titration mode; 1.5 mL receptor (200 μg mL^-1) in the vial, ligand (500 μg mL^-1) in a 250 μL syringe; PBS", "data": [{"substance": "Sperm immobilization factor (SIF) from Staphylococcus aureus (natural protein)", "values": [{"measurement": "Ka", "result": 1350, "unit": "M⁻¹"}, {"measurement": "dH", "result": -2.84, "unit": "kcal/mol"}, {"measurement": "heat released (ligand 7.5 × 10^-4 μM, receptor 4.8 × 10^-3 μM)", "result": 9.7, "unit": "mJ"}, {"measurement": "heat released (ligand 15.0 × 10^-4 μM, receptor 4.8 × 10^-3 μM)", "result": 9, "unit": "mJ"}, {"measurement": "heat released (ligand 22.5 × 10^-4 μM, receptor 4.8 × 10^-3 μM)", "result": 8.6, "unit": "mJ"}, {"measurement": "heat released (ligand 30.0 × 10^-4 μM, receptor 4.8 × 10^-3 μM)", "result": 5.6, "unit": "mJ"}, {"measurement": "heat released (ligand 37.5 × 10^-4 μM, receptor 4.8 × 10^-3 μM)", "result": 2.3, "unit": "mJ"}, {"measurement": "heat released (ligand 45.0 × 10^-4 μM, receptor 4.8 × 10^-3 μM)", "result": 2.1, "unit": "mJ"}, {"measurement": "heat released (ligand 52.5 × 10^-4 μM, receptor 4.8 × 10^-3 μM)", "result": 2, "unit": "mJ"}]}]}
